In patent US20260232824A1 (CHAMPIONS ONCOLOGY, published 2026):

T1: human MD-1 on HEK293 cells (human, UniProt O95711 21-162)
T1 construct: whole, on cells; also called HEK293 expressing MD-1 only; MD-1 cells
T1 sequence (looked up): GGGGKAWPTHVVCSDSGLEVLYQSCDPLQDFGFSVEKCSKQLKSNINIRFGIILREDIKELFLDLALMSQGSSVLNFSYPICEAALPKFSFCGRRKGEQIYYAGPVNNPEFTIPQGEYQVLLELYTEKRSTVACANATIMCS

T2: human CD180/human MD-1 on HEK293 cells (human, UniProt Q99467 24-661; O95711 21-162)
T2 construct: whole, on cells; Complex co-expressed on HEK293 cells; also called HEK293 expressing CD180/MD-1; HEK293 CD180/MD-1 cells
T2 sequence (looked up) 1: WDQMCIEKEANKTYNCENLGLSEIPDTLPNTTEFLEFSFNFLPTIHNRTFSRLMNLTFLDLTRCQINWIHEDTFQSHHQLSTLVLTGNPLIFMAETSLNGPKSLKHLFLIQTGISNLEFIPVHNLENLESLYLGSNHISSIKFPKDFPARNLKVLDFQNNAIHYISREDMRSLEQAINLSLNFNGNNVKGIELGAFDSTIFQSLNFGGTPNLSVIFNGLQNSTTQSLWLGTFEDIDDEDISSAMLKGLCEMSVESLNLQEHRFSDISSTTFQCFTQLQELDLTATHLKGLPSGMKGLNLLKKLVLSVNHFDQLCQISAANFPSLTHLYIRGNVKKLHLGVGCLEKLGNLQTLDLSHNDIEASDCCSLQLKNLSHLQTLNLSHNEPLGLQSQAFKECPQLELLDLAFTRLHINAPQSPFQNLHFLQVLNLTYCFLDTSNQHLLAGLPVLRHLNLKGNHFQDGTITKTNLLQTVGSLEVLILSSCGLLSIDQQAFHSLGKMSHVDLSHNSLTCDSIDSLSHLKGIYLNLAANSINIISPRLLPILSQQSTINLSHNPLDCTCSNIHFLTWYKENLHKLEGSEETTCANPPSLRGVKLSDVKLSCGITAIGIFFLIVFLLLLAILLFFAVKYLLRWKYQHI
T2 sequence (looked up) 2: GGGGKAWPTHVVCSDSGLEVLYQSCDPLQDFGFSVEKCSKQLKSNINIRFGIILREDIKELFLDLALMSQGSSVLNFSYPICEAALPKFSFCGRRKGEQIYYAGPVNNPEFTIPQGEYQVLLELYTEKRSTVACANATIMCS

T3: human CD180 extracellular domain (ECD) HIS-tagged protein (Creative Biomart, CD180-3900H) (human, UniProt Q99467 24-626)
T3 construct: extracellular domain; Bought protein; also called soluble human CD180 from Creative Biomart; not shown: His tag
T3 sequence (looked up): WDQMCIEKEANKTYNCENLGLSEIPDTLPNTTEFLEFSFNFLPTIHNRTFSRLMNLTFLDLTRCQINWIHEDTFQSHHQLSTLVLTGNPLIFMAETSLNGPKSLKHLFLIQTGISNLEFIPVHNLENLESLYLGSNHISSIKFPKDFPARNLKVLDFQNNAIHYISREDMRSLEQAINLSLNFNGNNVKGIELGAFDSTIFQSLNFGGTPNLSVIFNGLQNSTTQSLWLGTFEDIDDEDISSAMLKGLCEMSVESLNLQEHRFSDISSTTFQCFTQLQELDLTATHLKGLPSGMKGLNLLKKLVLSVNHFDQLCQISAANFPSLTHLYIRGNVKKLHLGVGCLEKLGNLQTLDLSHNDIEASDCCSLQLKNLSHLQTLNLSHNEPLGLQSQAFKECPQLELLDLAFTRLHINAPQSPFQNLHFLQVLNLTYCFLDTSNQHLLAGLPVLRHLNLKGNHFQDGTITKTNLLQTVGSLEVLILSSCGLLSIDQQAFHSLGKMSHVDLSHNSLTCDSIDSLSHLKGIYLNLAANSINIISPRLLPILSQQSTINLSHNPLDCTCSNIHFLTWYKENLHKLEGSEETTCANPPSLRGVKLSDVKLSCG

T4: human CD180 extracellular domain (ECD) HIS-tagged protein (Sino Biological, 11370-H08H) (human, UniProt Q99467 24-626)
T4 construct: extracellular domain; Bought protein; also called soluble human CD180 from Sino Biologics; human CD180(ECD)-HIS; not shown: His tag
T4 sequence (looked up): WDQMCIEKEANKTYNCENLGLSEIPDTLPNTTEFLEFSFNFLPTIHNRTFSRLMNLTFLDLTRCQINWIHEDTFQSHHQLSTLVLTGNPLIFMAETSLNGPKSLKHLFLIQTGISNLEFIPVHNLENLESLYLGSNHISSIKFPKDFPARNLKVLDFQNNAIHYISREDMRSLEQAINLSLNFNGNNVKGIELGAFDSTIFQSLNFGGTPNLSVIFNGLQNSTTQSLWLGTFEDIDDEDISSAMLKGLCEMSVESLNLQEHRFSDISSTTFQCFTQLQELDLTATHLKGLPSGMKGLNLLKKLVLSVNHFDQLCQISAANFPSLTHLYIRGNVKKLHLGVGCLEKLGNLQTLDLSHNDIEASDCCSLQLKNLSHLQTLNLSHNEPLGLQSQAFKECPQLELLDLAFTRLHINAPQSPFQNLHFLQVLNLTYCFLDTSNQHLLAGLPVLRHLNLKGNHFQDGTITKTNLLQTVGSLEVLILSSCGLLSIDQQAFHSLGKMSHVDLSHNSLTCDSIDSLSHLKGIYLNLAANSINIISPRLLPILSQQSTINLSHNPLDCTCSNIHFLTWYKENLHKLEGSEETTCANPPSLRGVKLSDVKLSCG


How the values were obtained:
[1] = target: T1, human MD-1 on HEK293 cells; assay: cell binding screen by flow cytometry (called cell-based ELISA), HEK293 expressing MD-1 only
Procedure: (§1) FIGS. 1A-IC show the cell binding properties of the anti-CD180 antibodies. All CHAMP mAbs were subjected to binding assays via cell-based ELISA. FIG. 1A: Antibodies were screened at […] and 30 nM in a cell-based ELISA using HEK293 expressing CD180/MD-1. […] P84, mouse IgG, and 2nd only mouse were negative controls. […] FIG. 1B: Antibodies were screened at […] in cell-based ELISA using HEK293 expressing MD-1 only. […] FIG. 1C: Antibodies were screened at […] in cell-based ELISA using HEK293 parental cell line.
(§2) All mAbs were subjected to cell binding screen detected on a flow cytometer. Engineered cells expressing CD180/MD-1, MD-1, or parental HEK cells were used to test for binding of the antibodies. Antibodies at a concentration of 100 nM or 30 nM were incubated with cells at 4° C. for 45 min. R-Phycoerythrin AffiniPure Goat Anti-Human IgG (Jackson Immunoresearch 109-115-098) was used as the secondary antibody. The binding of antibodies on cells were detected on Intellicyt iQue3 VBR.

[2] = target: T2, human CD180/human MD-1 on HEK293 cells; assay: cell-based ELISA / flow cytometry, HEK293 expressing CD180/MD-1, 100 nM and 30 nM
Procedure: as §1, §2

[3] = target: T3, human CD180 extracellular domain (ECD) …; assay: SPR, antibody captured in a bivalent format, soluble human CD180 from Creative Biomart passed over (FIG. 3B)
Procedure: (§3) FIGS. 3A-3C show intrinsic binding affinity of the antibodies as determined by Surface Plasmon Resonance (SPR) assay. Antibody was captured in a bivalent format and soluble human CD180 from Sino Biologics (FIG. 3A), Creative Biomart (FIG. 3B), or soluble rhesus CD180 (FIG. 3C) was passed over the captured antibody. […] Kon, koff and KD are indicated for each condition.
(§4) Surface Plasmon Resonance (SPR) was used to identify intrinsic binding affinity. Kinetic experiments were performed on Carterra LSA with a running buffer of PBS pH 7.40, 1% BSA, 0.05% Tween20. Antibodies were captured on an anti-human Fc capture chip prepared with a HC30M chip. […] For each concentration, there was 5 min association followed by 15 min dissociation. Results were processed and analyzed in Carterra LSA Kinetics Software. The kinetic data was referenced with the interstitial reference spots and double-referenced to a buffer cycle, and then fit globally to a 1:1 binding model to determine their apparent association and dissociation kinetic rate constants (kₒₙ and koff values). The ratio koff/kₒₙ was used to derive the KD value of each antigen/mAb interaction, i.e., KD=koff/kₒₙ.

[4] = target: T4, human CD180 extracellular domain (ECD) …; assay: SPR, antibody captured in a bivalent format, soluble human CD180 from Sino Biologics passed over (FIG. 3A)
Procedure: as §3, §4

[5] = target: T2, human CD180/human MD-1 on HEK293 cells; assay: cell binding screen by flow cytometry, cells expressing CD180/MD-1, 100 nM or 30 nM
Procedure: as §1, §2

[6] = target: T2, human CD180/human MD-1 on HEK293 cells; assay: cell binding on HEK293 CD180/MD-1 cells (FIG. 14G)
Procedure: Cells were then incubated with the secondary antibody R-Phycoerythrin AffiniPure Goat Anti-Human IgG (Jackson Immunoresearch 109-115-098). The data was acquired on Intellicyt iQue3 VBR. Median fluorescence intensities (MFI) were plotted against the concentrations of the anti-CD180 antibodies.

Binder | binding result [1] | binding result [2] | binding result [3] | binding result [4] | binding result [5] | EC50 [6]
Ab-002 (antibody, human IgG1, kappa, V domains shown) VH: EVQLVESGGGLVQPGGSLRLSCAASGFTSVDYAMHWVRQAPGKGLEWVSYISWNNNNIGYADSVKGRFTISRDNAKNSLYLHMSSLRAEDTALYYCAKDIAYNTGYFDYWGQGTLVTVSS VL: not shown | no binding (tested: 100 nM) | – | – | – | binds | –
Ab-006 (antibody, human IgG1, kappa, V domains shown, also called ChampmAb-006; Champ mAb-006) VH: EVQLVESGGGLVKPGGSLRLSCTASGFTFDDYDMTWVRQAPGKGLEWVSGINWNGGNTDYADSVKGRFTISRDNTKNSLYLQMNSLRAEDTALYYCARKGRDIVVVKGFYYHYYYMDVWGKGITVTVSS VL: not shown | no binding (tested: 100 nM) | – | binds | binds | binds | –
Ab-016 (antibody, human IgG1, kappa, V domains shown) VH: EVQLVESGGGLVQPGRSLRLSCTTSGFTFADYAMHWVRQTPGKGLEWVSGISWNGGTIGYADSVKGRFTISRDIAKNSLYLQMNSLRAEDTALYYCAKDIAYSRGYFQHWGQGTLVTVSS VL: not shown | no binding (tested: 100 nM) | binds | – | – | – | –
Ab-005 (antibody, human IgG1, kappa, V domains shown) VH: EVQLVESGGGLVQPGGSLRLSCTTSGFTFADYAMHWVRQTPGKGLEWVSGISWNGGTIGYADSVKGRFTISRDIAKNSLYLQMNSLRAEDTALYYCAKDIAYSRGYFQHWGQGTLVTVSS VL: not shown | no binding (tested: 100 nM) | – | – | – | binds | –
Ab-004 (antibody, human IgG1, kappa, V domains shown, also called CHAMPmAB-004) VH: EVQLVESGGGLVQPGGSLRLSCTTSGFTFADYAMHWVRQTPGKGLEWVSGISWNGVTIDYADSVKGRFTISRDIAKNSLYLQMNSLRAEDTALYYCAKDIAYSRGYFQHWGQGTLVTVSS VL: not shown | no binding (tested: 100 nM) | – | – | – | binds | –
Ab-003 (antibody, human IgG1, kappa, V domains shown) VH: EVQLVESGGGLVQPGRSLRLSCTTSGFTFADYAMHWVRQTPGQGLEWVSGISWNGGTMGYADSVKGRFTISRDIAKNSLYLQMNSLRAEDTALYYCAKDIAYSRGYFQHWGQGTLVTVSS VL: not shown | no binding (tested: 100 nM) | – | – | – | binds | –

The next lines start with the values.

binding result [1] | binding result [2] | binding result [3] | binding result [4] | binding result [5] | EC50 [6] | Binder
no binding (tested: 100 nM) | binds | binds | binds | – | – | Ab-007 (antibody, human IgG1, kappa, V domains shown, also called ChampmAb-007; Champ mAb-007) VH: EVQLVESGGGVVRPGGSLRLSCAASGFTFDDYAMSWVRQAPGKGLEWVSDINWNGGTTSYADSVKGRFTISRDNAKNSLFLQMNSLRAEDTALYYCARKGRDTVVVKGYYYFSYYMDVWGKGSTVTVSS VL: not shown
no binding (tested: 100 nM) | binds | – | – | – | – | Ab-008 (antibody, human IgG1, kappa, V domains shown) VH: EVQLVESGGGLVQPGRSLRLSCTTSGFTFADYAMHWVRQTPGQGLEWVSGISWNGGTMGYADSVKGRFTISRDIAKNSLYLQMNSLRAEDTALYYCAKDIAYSRGYFQHWGQGTLVTVSS VL: DIQMTQSPSSLSASVGDRVTITCRASQGIRNDLGWYQQKPGKAPKLLIYAASTLQSGVPSRFSGSGSGTDFTLTISSLQPEDVATYYCQKYNSAPFTFGPGTKVDIKR
no binding (tested: 100 nM) | – | – | – | – | – | Ab-009 (antibody, human IgG1, kappa, V domains shown) VH: EVQLVESGGGLVQPGRSLRLSCTTSGFTFADYAMHWVRQTPGKGLEWVSGISWNGVTIDYADSVKGRFTISRDIAKNSLYLQMNSLRAEDTALYYCAKDIAYSRGYFQHWGQGTLVTVSS VL: not shown
no binding (tested: 100 nM) | binds | – | – | – | – | Ab-012 (antibody, human IgG1, kappa, V domains shown) VH: EVQLVESGGGLVQPGRSLRLSCTTSGFTFADYAMHWVRQTPGQGLEWVSGISWNGGTMGYADSVKGRFTISRDIAKNSLYLQMNSLRAEDTALYYCAKDIAYSRGYFQHWGQGTLVTVSS VL: not shown
no binding (tested: 100 nM) | – | – | – | – | 4 nM | Ab-014 (antibody, human IgG1, kappa, V domains shown, also called CHAMPmAB-014) VH: EVQLVESGGGLVQPGRSLRLSCTTSGFTFADYAMHWVRQTPGKGLEWVSGISWNGVTIDYADSVKGRFTISRDIAKNSLYLQMNSLRAEDTALYYCAKDIAYSRGYFQHWGQGTLVTVSS VL: not shown
no binding (tested: 100 nM) | binds | – | – | – | – | Ab-017 (antibody, human IgG1, kappa, V domains shown) VH: EVQLVESGGGLVQPGRSLRLSCTTSGFTFADYAMHWVRQTPGQGLEWVSGISWNGGTMGYADSVKGRFTISRDIAKNSLYLQMNSLRAEDTALYYCAKDIAYSRGYFQHWGQGTLVTVSS VL: not shown
no binding (tested: 100 nM) | binds | – | – | – | – | Ab-010 (antibody, human IgG1, kappa, V domains shown) VH: EVQLVESGGGLVQPGGSLRLSCTSSGFTFADYAMHWVRQTPGKGLEWVSGISWNGGTFDYADSVKGRFTISRDIAKNSLYLQMNSLRVEDTALYYCAKDIAYSRGYFQHWGQGTLVTVSS VL: not shown
